Source: paper doi:10.1101/2025.10.03.680274

Experiments:
Assay in all cases: split reporter
[1] = target: ADGRL4-CTF1 I411A (human) (UniProt Q9HBW9)
[2] = target: ADGRL4-CTF1 S414A (human) (UniProt Q9HBW9)
[3] = target: ADGRL4-CTF1 F409A (human) (UniProt Q9HBW9)
[4] = target: ADGRL4-CTF1 H408A (human) (UniProt Q9HBW9)
[5] = target: ADGRL4-CTF1 L412A (human) (UniProt Q9HBW9)

reduction of Gq coupling relative to wild-type CTF1 [1]: > 50%
reduction of Gq coupling relative to wild-type CTF1 [2]: > 50%
Gq coupling as percent of wild-type CTF1 [3]: 12%
reduction of Gq coupling relative to wild-type CTF1 [4]: > 50%
reduction of Gq coupling relative to wild-type CTF1 [5]: > 50%
Substance: LgBiT-mini-Gq (mini-Gs/q version 70) (domain or fragment)
